± gives the uncertainty stated by the source.
B1: Serine/threonine-protein kinase A-Raf, residues 21 to 89; numbered along this chain, P10398 (parent)
chain: VKVYLPNKQRTVVTVRDGMSVYDSLDKALKVRGLNQDCCVVYRLIKGRKTVTAWDTAIAPLDGEELIVE

Variants of: B1
Assay: abundance fitness (aPCA) (normalised: wild type 0, dead -1); higher = more abundant; growth selection in yeast, the domain comes from the species named
Conditions: Homo sapiens
A28W showed an abundance fitness of -0.425 ± 0.048. A28G showed an abundance fitness of -0.78 ± 0.09. A28T gave an abundance fitness of -0.206 ± 0.098. In the case of A28R, the abundance fitness is reported as -1.06 ± 0.14. In the case of A28Q, the abundance fitness is reported as -0.438 ± 0.096. Work on A28V yielded an abundance fitness of 0.1 ± 0.042. In the case of A28Y, the abundance fitness is reported as -0.274 ± 0.14. With A28C the abundance fitness was -0.223 ± 0.11. Work on Q36D yielded an abundance fitness of -0.582 ± 0.31. Q36N gave an abundance fitness of -0.574 ± 0.22. Variant Q36M has an abundance fitness of -0.18 ± 0.082. With Q36L the abundance fitness was -0.335 ± 0.072. In the case of Q36V, the abundance fitness is reported as -0.028 ± 0.065. Variant Q36H has an abundance fitness of -0.203 ± 0.077. Work on Q36F yielded an abundance fitness of -0.134 ± 0.12. Q36G showed an abundance fitness of -0.398 ± 0.09. Q36T showed an abundance fitness of -0.162 ± 0.069. Q36K gave an abundance fitness of 0.046 ± 0.15. Q36S showed an abundance fitness of -0.178 ± 0.072. In the case of Q36P, the abundance fitness is reported as -0.03 ± 0.067. With Q36Y the abundance fitness was -0.169 ± 0.17. In the case of Q36E, the abundance fitness is reported as -0.485 ± 0.3. With Q36I the abundance fitness was -0.043 ± 0.12. For Q36A, the abundance fitness was -0.043 ± 0.071. With Q36R the abundance fitness was 0.058 ± 0.083. Variant Q36C has an abundance fitness of -0.206 ± 0.12. Work on V31A yielded an abundance fitness of 0.111 ± 0.056. With V31L the abundance fitness was 0.005 ± 0.046. For V31P, the abundance fitness was -0.41 ± 0.1. For V31N, the abundance fitness was -0.073 ± 0.17. In the case of V31E, the abundance fitness is reported as 0.066 ± 0.067. Work on V31R yielded an abundance fitness of 0.004 ± 0.046. With V31G the abundance fitness was -0.086 ± 0.04. Work on V31I yielded an abundance fitness of -0.076 ± 0.07. V31W showed an abundance fitness of -0.305 ± 0.072. For V31D, the abundance fitness was -0.265 ± 0.25. V31K gave an abundance fitness of -0.042 ± 0.079. In the case of V31C, the abundance fitness is reported as -0.103 ± 0.086. With V31T the abundance fitness was 0.015 ± 0.08. Work on V31M yielded an abundance fitness of -0.045 ± 0.082. V31F gave an abundance fitness of -0.187 ± 0.12. V31Y gave an abundance fitness of -0.278 ± 0.15. C38N gave an abundance fitness of 0.141 ± 0.3. In the case of C38W, the abundance fitness is reported as -0.179 ± 0.059. For C38M, the abundance fitness was 0.12 ± 0.09. Work on C38Y yielded an abundance fitness of -0.082 ± 0.12. In the case of C38H, the abundance fitness is reported as -0.019 ± 0.11. Variant C38Q has an abundance fitness of -0.037 ± 0.072. Variant C38G has an abundance fitness of 0.038 ± 0.052. For C38F, the abundance fitness was -0.136 ± 0.097. C38I gave an abundance fitness of -0.074 ± 0.1. C38P gave an abundance fitness of -0.677 ± 0.14. In the case of C38T, the abundance fitness is reported as -0.004 ± 0.082. C38V gave an abundance fitness of -0.075 ± 0.063. C38R gave an abundance fitness of -0.094 ± 0.051. For C38E, the abundance fitness was 0.118 ± 0.091. With D23L the abundance fitness was -0.493 ± 0.059. D23M showed an abundance fitness of -0.301 ± 0.069. D23F gave an abundance fitness of -0.056 ± 0.12. Work on D23P yielded an abundance fitness of -0.931 ± 0.23. D23N gave an abundance fitness of -0.294 ± 0.19. Work on D23G yielded an abundance fitness of -0.388 ± 0.038. For D23T, the abundance fitness was -0.087 ± 0.055. Work on D23H yielded an abundance fitness of -0.345 ± 0.26. D23R showed an abundance fitness of -0.283 ± 0.045. D23E showed an abundance fitness of 0.085 ± 0.057. In the case of D23Q, the abundance fitness is reported as 0.118 ± 0.067. Work on D23K yielded an abundance fitness of -0.106 ± 0.077. For D23S, the abundance fitness was -0.145 ± 0.065. With D23Y the abundance fitness was -0.825 ± 0.21. In the case of D23V, the abundance fitness is reported as -0.389 ± 0.039. D23W gave an abundance fitness of -0.338 ± 0.053. Variant D23C has an abundance fitness of -0.908 ± 0.26. Work on D23A yielded an abundance fitness of -0.201 ± 0.05. L29N gave an abundance fitness of -0.607 ± 0.25. For L29P, the abundance fitness was -0.958 ± 0.096. L29T gave an abundance fitness of -0.845 ± 0.2. With L29G the abundance fitness was -0.941 ± 0.11. In the case of L29C, the abundance fitness is reported as -0.995 ± 0.3. With L29E the abundance fitness was -0.947 ± 0.13. Work on L29A yielded an abundance fitness of -0.933 ± 0.18. With L29I the abundance fitness was -0.907 ± 0.34. With L29R the abundance fitness was -0.969 ± 0.099. For L29F, the abundance fitness was -0.191 ± 0.13. L29Q gave an abundance fitness of -0.913 ± 0.23. L29M showed an abundance fitness of 0.191 ± 0.058. L29V gave an abundance fitness of -0.806 ± 0.095. For L29S, the abundance fitness was -0.558 ± 0.072. With L29W the abundance fitness was -0.601 ± 0.07. With S20P the abundance fitness was -0.728 ± 0.11. S20R showed an abundance fitness of -0.352 ± 0.044. In the case of S20Q, the abundance fitness is reported as -0.799 ± 0.15. S20V gave an abundance fitness of -0.876 ± 0.16. With S20W the abundance fitness was -0.847 ± 0.14. With S20T the abundance fitness was 0 ± 0.073. S20Y gave an abundance fitness of -0.623 ± 0.23. Variant N35L has an abundance fitness of -0.32 ± 0.044. Work on N35I yielded an abundance fitness of -0.682 ± 0.19. Variant N35W has an abundance fitness of -0.866 ± 0.15. In the case of N35A, the abundance fitness is reported as -0.188 ± 0.066. N35T showed an abundance fitness of 0.025 ± 0.064. N35M showed an abundance fitness of -0.321 ± 0.081. N35P showed an abundance fitness of -0.754 ± 0.15. N35G gave an abundance fitness of -0.154 ± 0.041. N35F gave an abundance fitness of -0.449 ± 0.18. In the case of N35H, the abundance fitness is reported as -0.415 ± 0.37. For N35K, the abundance fitness was -0.063 ± 0.086. Work on N35D yielded an abundance fitness of -0.132 ± 0.12. With N35Y the abundance fitness was -0.019 ± 0.21. With N35R the abundance fitness was -0.101 ± 0.04. Work on N35V yielded an abundance fitness of -0.161 ± 0.053. Work on N35E yielded an abundance fitness of 0.016 ± 0.068. N35Q gave an abundance fitness of -0.221 ± 0.069. For S24F, the abundance fitness was -0.349 ± 0.087. For S24R, the abundance fitness was -0.914 ± 0.091. With S24W the abundance fitness was -0.35 ± 0.061. S24Q gave an abundance fitness of -0.411 ± 0.071. For S24I, the abundance fitness was 0.027 ± 0.12. Variant S24Y has an abundance fitness of -0.487 ± 0.34. S24T gave an abundance fitness of -0.025 ± 0.046. With S24M the abundance fitness was -0.04 ± 0.075. Work on S24N yielded an abundance fitness of -0.469 ± 0.23. For S24A, the abundance fitness was 0.174 ± 0.042. S24C gave an abundance fitness of 0.11 ± 0.093. Work on S24P yielded an abundance fitness of -0.896 ± 0.21. With S24H the abundance fitness was -0.949 ± 0.3. For S24V, the abundance fitness was 0.031 ± 0.05. Variant S24G has an abundance fitness of 0.149 ± 0.049. For S24E, the abundance fitness was -0.652 ± 0.11. With S24D the abundance fitness was -0.887 ± 0.076. Work on S24K yielded an abundance fitness of -0.912 ± 0.17. D37Q showed an abundance fitness of 0.14 ± 0.15. D37Y showed an abundance fitness of -0.408 ± 0.15. With D37T the abundance fitness was -0.387 ± 0.16. In the case of D37E, the abundance fitness is reported as -0.141 ± 0.15. Variant D37P has an abundance fitness of -0.662 ± 0.26. With D37C the abundance fitness was -0.273 ± 0.098. Work on D37M yielded an abundance fitness of -0.499 ± 0.098. D37G gave an abundance fitness of -0.219 ± 0.061. In the case of D37V, the abundance fitness is reported as -0.755 ± 0.13. Variant D37N has an abundance fitness of -0.186 ± 0.15. With D37L the abundance fitness was -0.567 ± 0.089. In the case of D37H, the abundance fitness is reported as -0.097 ± 0.1. In the case of D37I, the abundance fitness is reported as -0.39 ± 0.26. D37S showed an abundance fitness of -0.196 ± 0.079. Work on D37A yielded an abundance fitness of -0.39 ± 0.097. Variant D37W has an abundance fitness of -0.838 ± 0.31. Work on D37R yielded an abundance fitness of -0.198 ± 0.059. Variant K27R has an abundance fitness of -0.046 ± 0.2. K27Q showed an abundance fitness of -0.39 ± 0.37. Work on D26P yielded an abundance fitness of -0.977 ± 0.22. D26W showed an abundance fitness of -0.113 ± 0.061. Work on D26L yielded an abundance fitness of -0.137 ± 0.053. D26M showed an abundance fitness of -0.119 ± 0.063. For D26C, the abundance fitness was 0.063 ± 0.099. For D26R, the abundance fitness was 0.023 ± 0.051. With D26V the abundance fitness was -0.065 ± 0.051. With D26G the abundance fitness was -0.1 ± 0.047. For D26K, the abundance fitness was -0.076 ± 0.083. In the case of D26H, the abundance fitness is reported as -0.096 ± 0.23. For D26T, the abundance fitness was -0.277 ± 0.12. Variant D26A has an abundance fitness of 0.069 ± 0.071. D26S gave an abundance fitness of -0.113 ± 0.069. Variant D26I has an abundance fitness of -0.146 ± 0.09. With D26Y the abundance fitness was -0.182 ± 0.14. For D26E, the abundance fitness was 0.04 ± 0.093. Variant D26Q has an abundance fitness of 0.179 ± 0.098.
